# Biological target: hnRNP A1 (UniProt P09651 1-251+304-372, internal_change)
# Assay: MST; 150 mM KCl; MST: 100 nM RED-labelled hnRNP A1, oligonucleotide titrated, 10 min incubation, working buffer with 150 mM KCl (40 mM HEPES-KOH pH 7.0 stated for the other assays); Hill model; temperature not stated
# Details: tags: RED dye label (MST); parallel G4 loop on short duplex stem GCUGC/GCAGC, 5' single-stranded UCAGUU
# hnRNP A1, sequence (P09651 other isoform, or with tags, fused parts or gaps): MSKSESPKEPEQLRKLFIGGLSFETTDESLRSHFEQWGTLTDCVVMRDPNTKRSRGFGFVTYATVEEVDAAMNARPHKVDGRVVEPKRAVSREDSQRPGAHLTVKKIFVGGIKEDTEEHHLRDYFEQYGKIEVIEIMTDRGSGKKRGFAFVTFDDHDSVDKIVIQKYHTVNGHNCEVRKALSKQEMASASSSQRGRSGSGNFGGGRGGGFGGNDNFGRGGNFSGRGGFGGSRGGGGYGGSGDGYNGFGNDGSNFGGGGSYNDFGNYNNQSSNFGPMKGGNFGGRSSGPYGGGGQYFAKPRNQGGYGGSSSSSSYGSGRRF
binder,measurement,value
UCAGUUGCUGCGGGUGGGUGGGUGGGGCAGC (structured_RNA) [chap-RNA],Kd,6 ± 1 µM
